In patent US20220389394A1 (Gilead, published 2022):
Where a chain is given by its changes, count along the chain named. Numbers in names are those of the source. Like-named read-outs stand apart in the source and are kept apart here. Each block holds one binder with its values, some of them ahead of it.

Legend:
[1] = target: T1, human FLT3 on the AML5 cell line (human, UniProt P36888 27-993); test: cell-based or functional assay
T1 sequence (looked up): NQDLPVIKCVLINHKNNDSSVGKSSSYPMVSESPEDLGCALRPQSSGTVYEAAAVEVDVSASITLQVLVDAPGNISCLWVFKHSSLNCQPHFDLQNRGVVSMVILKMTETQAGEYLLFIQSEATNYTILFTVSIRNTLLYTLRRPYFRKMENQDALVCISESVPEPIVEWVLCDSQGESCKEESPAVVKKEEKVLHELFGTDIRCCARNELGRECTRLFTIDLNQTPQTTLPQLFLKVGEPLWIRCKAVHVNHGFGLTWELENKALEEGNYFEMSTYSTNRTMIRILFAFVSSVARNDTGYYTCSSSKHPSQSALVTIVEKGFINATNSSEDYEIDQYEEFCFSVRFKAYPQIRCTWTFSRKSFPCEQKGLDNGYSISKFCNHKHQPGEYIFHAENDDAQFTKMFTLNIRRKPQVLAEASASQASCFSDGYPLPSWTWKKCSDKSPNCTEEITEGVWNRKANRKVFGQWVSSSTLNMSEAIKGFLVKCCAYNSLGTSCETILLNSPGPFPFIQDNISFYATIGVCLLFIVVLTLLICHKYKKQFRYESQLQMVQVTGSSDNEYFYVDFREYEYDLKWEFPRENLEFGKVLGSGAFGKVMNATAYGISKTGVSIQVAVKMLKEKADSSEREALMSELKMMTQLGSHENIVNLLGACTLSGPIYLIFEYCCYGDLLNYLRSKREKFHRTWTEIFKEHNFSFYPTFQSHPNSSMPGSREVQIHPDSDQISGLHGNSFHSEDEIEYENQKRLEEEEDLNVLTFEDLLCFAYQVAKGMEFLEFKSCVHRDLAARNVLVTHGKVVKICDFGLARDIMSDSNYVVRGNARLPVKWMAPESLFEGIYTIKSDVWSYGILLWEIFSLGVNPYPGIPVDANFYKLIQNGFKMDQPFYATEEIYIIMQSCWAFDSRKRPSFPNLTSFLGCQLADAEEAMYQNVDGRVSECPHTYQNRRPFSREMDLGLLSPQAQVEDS

[2] = target: T2, recombinant human FcRn (human, UniProt P55899 24-297; P61769 21-119, limits assumed); test: ELISA; recombinant human FcRn coated, serially diluted test article, anti-human (H+L)-HRP, 4PL fit
T2 construct: a beta-2-microglobulin chain is not mentioned; also called human recombinant FcRn
Method: (§1) Graph is a result of one experiment. Experiment was performed in duplicate. Error bars represent standard deviation of the mean values.
(§2) Signal was developed using TMB substrate then quenched prior to reading absorbance at 450-650 nm on a SpectraMax plate reader.

[3] = target: T1, human FLT3 on the AML5 cell line; test: cell-based or functional assay; remark: listed apart in the source
[4] = target: T1, human FLT3 on the AML5 cell line; test: cell-based or functional assay; remark: listed apart in the source
[5] = target: T3, his-tagged recombinant human Flt3 receptor (Sino Biologicals) (human, UniProt P36888 27-541, limits assumed); test: ELISA; His-tagged recombinant human Flt3 on nickel plate, serially diluted Flt3L-Fc, anti-human (H+L)-HRP, 4PL fit
T3 construct: Bought protein; also called human recombinant FLT3; not shown: His tag
T3 sequence (looked up): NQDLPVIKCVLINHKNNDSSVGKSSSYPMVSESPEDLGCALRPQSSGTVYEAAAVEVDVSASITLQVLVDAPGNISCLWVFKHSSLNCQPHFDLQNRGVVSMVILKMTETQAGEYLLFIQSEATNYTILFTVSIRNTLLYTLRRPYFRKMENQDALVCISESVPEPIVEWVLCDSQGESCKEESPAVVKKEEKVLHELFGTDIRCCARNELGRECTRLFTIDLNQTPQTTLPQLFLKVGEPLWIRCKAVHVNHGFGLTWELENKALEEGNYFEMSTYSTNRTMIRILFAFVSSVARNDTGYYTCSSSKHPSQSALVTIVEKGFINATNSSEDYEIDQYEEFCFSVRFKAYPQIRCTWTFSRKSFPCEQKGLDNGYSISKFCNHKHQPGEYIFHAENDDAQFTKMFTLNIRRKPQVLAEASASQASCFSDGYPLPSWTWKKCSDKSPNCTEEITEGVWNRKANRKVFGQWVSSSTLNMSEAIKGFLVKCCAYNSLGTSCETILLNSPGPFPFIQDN
Text: Graph is a result of one experiment.
(§3) Signal was developed using TMB substrate then quenched prior to reading absorbance at 450 nm on a SpectraMax plate reader.

[6] = target: T1, human FLT3 on the AML5 cell line; test: cell-based or functional assay; remark: listed apart in the source
[7] = target: T2, recombinant human FcRn; test: ELISA; recombinant human FcRn coated, serially diluted test article, anti-human (H+L)-HRP, 4PL fit; estimate, no saturating signal
Method: as §1, §2

[8] = target: T1, human FLT3 on the AML5 cell line; test: cell-based or functional assay; remark: listed apart in the source
[9] = target: T4, recombinant human C1q protein (Fitzgerald) (human, UniProt P02745 23-245; P02746 28-253; P02747 29-245, limits assumed); test: ELISA, test article immobilized, C1q added; text: devoid of C1q binding ability
T4 construct: also called human recombinant complement protein, C1q
T4 sequence (P02745 23-245 limits assumed, chain 1 of 3): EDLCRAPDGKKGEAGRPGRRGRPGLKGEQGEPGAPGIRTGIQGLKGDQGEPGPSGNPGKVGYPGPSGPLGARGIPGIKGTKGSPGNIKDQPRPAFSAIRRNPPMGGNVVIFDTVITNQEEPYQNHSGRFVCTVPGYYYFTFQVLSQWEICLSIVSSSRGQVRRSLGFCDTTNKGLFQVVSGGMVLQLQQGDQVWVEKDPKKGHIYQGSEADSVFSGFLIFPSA
T4 sequence (P02746 28-253 limits assumed, chain 2 of 3): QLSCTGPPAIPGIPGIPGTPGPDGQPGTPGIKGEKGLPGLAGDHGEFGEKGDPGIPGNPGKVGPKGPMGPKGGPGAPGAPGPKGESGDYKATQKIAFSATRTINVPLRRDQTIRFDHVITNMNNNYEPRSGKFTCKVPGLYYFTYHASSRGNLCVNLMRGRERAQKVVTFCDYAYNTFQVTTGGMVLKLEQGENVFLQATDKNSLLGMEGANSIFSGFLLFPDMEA
T4 sequence (P02747 29-245 limits assumed, chain 3 of 3): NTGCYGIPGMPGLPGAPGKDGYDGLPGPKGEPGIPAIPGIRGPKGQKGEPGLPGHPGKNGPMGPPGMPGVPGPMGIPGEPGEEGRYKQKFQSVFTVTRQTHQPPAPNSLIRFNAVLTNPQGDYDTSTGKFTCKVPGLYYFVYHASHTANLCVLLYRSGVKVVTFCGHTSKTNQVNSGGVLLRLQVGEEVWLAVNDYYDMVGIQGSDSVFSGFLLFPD

[10] = target: T3, his-tagged recombinant human Flt3 …; test: ELISA; His-tagged recombinant human Flt3 on nickel plate, serially diluted Flt3L-Fc, anti-human (H+L)-HRP, 4PL fit; remark: listed apart in the source
Method: as §1, §3

[11] = target: T4, recombinant human C1q protein …; test: ELISA, test article immobilized, C1q added; text: devoid of C1q binding ability; remark: listed apart in the source
[12] = target: T2, recombinant human FcRn; test: FcRn ELISA

EC50 (nM), AML5 proliferation [1]: 0.034 nM | EC50 [2]: 2330 nM | EC50 (nM), AML5 proliferation [3]: 0.04 nM | EC50 (nM), AML5 proliferation [4]: 0.05 nM | EC50 [5]: 0.12 nM | EC50 (nM), AML5 proliferation [6]: 0.08 nM | EC50 [7]: ~151 nM | EC50 (nM), AML5 proliferation [8]: 0.078 nM | EC50 [10]: 0.81 nM
B1: human FLT3-ligand human hingeless IgG1 fusion protein (SEQ ID NO:1) (Fc fusion)
chain: TQDCSFQHSPISSDFAVKIRELSDYLLQDYPVTVASNLQDEELCGGLWRLVLAQRWMERLKTVAGSKMQGLLERVNTEIHFVTKCAFQPPPSCLRFVQTNISRLLQETSEQLVALKPWITRQNFSRCLELQCQPDSSTLPPPWSPRPLEATAPTAPQGGPSVFLFPPKPKDTLMISRTPEVTCVVVDVSHEDPEVKFNWYVDGVEVHNAKTKPREEQYNSTYRVVSVLTVLHQDWLNGKEYKCKVSNKALPAPIEKTISKAKGQPREPQVYTLPPSREEMTKNQVSLTCLVKGFYPSDIAVEWESNGQPENNYKTTPPVLDSDGSFFLYSKLTVDKSRWQQGNVFSCSVMHEALHNHYTQKSLSLSPGK
notes: also called FLT3L ECD-hingeless hG1; hFLT3L ECD
binding result [9]: no binding (tested: 94 nM (highest of the titration))

EC50 [2]: 61 nM | EC50 (nM), AML5 proliferation [4]: 0.037 nM | fold increase in FcRn binding against SEQ ID NO:1 [12]: 38 fold | EC50 [10]: 0.88 nM
B2: human FLT3-ligand human hingeless IgG1 (M252Y/S254T/T256E) fusion protein (SEQ ID NO:9) (Fc fusion)
chain: B1 chain with M174Y, S176T, T178E
notes: also called FLT3L ECD-hingeless hG1 (M252Y/S254T/T256E)
binding result [11]: no binding (tested: 94 nM (highest of the titration))

EC50 [2]: 178 nM | EC50 (nM), AML5 proliferation [4]: 0.046 nM | fold increase in FcRn binding against SEQ ID NO:6 [12]: 2 fold | EC50 [10]: 0.92 nM
B3: human FLT3-ligand (Δ5 amino acid) human IgG4 (S228P/F234A/L235A/M252Y/S254T/T256E) fusion protein (SEQ ID NO:14) (Fc fusion)
chain: TQDCSFQHSPISSDFAVKIRELSDYLLQDYPVTVASNLQDEELCGGLWRLVLAQRWMERLKTVAGSKMQGLLERVNTEIHFVTKCAFQPPPSCLRFVQTNISRLLQETSEQLVALKPWITRQNFSRCLELQCQPDSSTLPPPWSPRPLEATAESKYGPPCPPCPAPEAAGGPSVFLFPPKPKDTLYITREPEVTCVVVDVSQEDPEVQFNWYVDGVEVHNAKTKPREEQFNSTYRVVSVLTVLHQDWLNGKEYKCKVSNKGLPSSIEKTISKAKGQPREPQVYTLPPSQEEMTKNQVSLTCLVKGFYPSDIAVEWESNGQPENNYKTTPPVLDSDGSFFLYSRLTVDKSRWQEGNVFSCSVMHEALHNHYTQKSLSLSLGK
notes: also called FLT3L ECD (Δ C-term 5aa (PTAPQ)) - hG4 (S228P/F234A/L235A/M252Y/S254T/T256E)
binding result [11]: no binding (tested: 94 nM (highest of the titration))
